Data published in article PMC2905062.

Target: Axl receptor tyrosine kinase, wildtype (human)
Assay: co-IP

fold Grb2 co-IP'ed with Axl, rhGas6 stimulation against no stimulation: 2 fold
Substance: endogenous growth factor receptor-bound protein 2 (Grb2) of COS7 cells (natural protein)
